Experimental data as given in patent publication US20120253009A1 (Amgen, published 2012).

T1: human mpl receptor (human, UniProt P40238 26-635)
T1 sequence (looked up): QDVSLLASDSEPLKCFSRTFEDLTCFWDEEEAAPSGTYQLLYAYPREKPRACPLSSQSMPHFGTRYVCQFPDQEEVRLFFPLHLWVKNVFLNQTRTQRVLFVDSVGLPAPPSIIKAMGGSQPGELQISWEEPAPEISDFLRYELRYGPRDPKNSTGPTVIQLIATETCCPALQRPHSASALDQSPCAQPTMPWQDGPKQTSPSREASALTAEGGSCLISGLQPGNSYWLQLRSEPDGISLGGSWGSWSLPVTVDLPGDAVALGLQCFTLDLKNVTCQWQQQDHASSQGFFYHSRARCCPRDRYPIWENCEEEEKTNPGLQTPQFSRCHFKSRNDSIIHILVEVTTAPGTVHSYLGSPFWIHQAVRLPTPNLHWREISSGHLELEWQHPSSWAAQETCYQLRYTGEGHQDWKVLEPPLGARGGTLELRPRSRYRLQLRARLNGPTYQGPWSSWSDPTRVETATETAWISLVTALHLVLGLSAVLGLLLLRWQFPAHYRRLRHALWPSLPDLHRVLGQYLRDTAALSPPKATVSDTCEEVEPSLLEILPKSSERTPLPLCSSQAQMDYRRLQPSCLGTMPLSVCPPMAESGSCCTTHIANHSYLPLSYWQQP

B1: Fc-Loop (Sym) (SEQ ID NO: 35) (Fc fusion)
chain: MDKTHTCPPCPAPELLGGPSVFLFPPKPKDTLMISRTPEVTCVVVDVSHEDPEVKFNWYVDGVEVHNAKTKPREEQYNSTYRVVSVLTVLHQDWLNGKEYKCKVSNKALPAPIEKTISKAKGQPREPQVYTLPPSRDELGGQGCSSGGPTLREWQQCRRMQHSGGTKNQVSLTCLVKGFYPSDIAVEWESNGQPENNYKTTPPVLDSDGSFFLYSKLTVDKSRWQQGNVFSCSVMHEALHNHYTQKSLSLSPGK
B2: Fc-Loop (Sym) (SEQ ID NO: 5) (Fc fusion)
chain: MDKTHTCPPCPAPELLGGPSVFLFPPKPKDTLMISRTPEVTCVVVDVSHEDPEVKFNWYVDGVEVHNAKTKPREEQYNSTYRVVSVLTVLHQDWLNGKEYKCKVSNKALPAPIEKTISKAKGQPREPQVYTLPPSRDELGGQGCSSGGPTLREWQQCVRMQHSGGTKNQVSLTCLVKGFYPSDIAVEWESNGQPENNYKTTPPVLDSDGSFFLYSKLTVDKSRWQQGNVFSCSVMHEALHNHYTQKSLSLSPGK
B3: Fc-Loop (Sym) (SEQ ID NO: 6) (Fc fusion)
chain: MDKTHTCPPCPAPELLGGPSVFLFPPKPKDTLMISRTPEVTCVVVDVSHEDPEVKFNWYVDGVEVHNAKTKPREEQYNSTYRVVSVLTVLHQDWLNGKEYKCKVSNKALPAPIEKTISKAKGQPREPQVYTLPPSRDELGGQGCSSGGPTLREWQQCRRAQHSGGTKNQVSLTCLVKGFYPSDIAVEWESNGQPENNYKTTPPVLDSDGSFFLYSKLTVDKSRWQQGNVFSCSVMHEALHNHYTQKSLSLSPGK
B4: Fc-Loop (Asym) (SEQ ID NO: 35) (Fc fusion)
chain: MDKTHTCPPCPAPELLGGPSVFLFPPKPKDTLMISRTPEVTCVVVDVSHEDPEVKFNWYVDGVEVHNAKTKPREEQYNSTYRVVSVLTVLHQDWLNGKEYKCKVSNKALPAPIEKTISKAKGQPREPQVYTLPPSRDELGGGGQGCSSGGPTLREWQQCRRMQHSGGTKNQVSLTCLVKGFYPSDIAVEWESNGQPENNYKTTPPVLDSDGSFFLYSKLTVDKSRWQQGNVFSCSVMHEALHNHYTQKSLSLSPGK
B5: Fc-Loop (Asym) (SEQ ID NO: 5) (Fc fusion)
chain: MDKTHTCPPCPAPELLGGPSVFLFPPKPKDTLMISRTPEVTCVVVDVSHEDPEVKFNWYVDGVEVHNAKTKPREEQYNSTYRVVSVLTVLHQDWLNGKEYKCKVSNKALPAPIEKTISKAKGQPREPQVYTLPPSRDELGGGGQGCSSGGPTLREWQQCVRMQHSGGTKNQVSLTCLVKGFYPSDIAVEWESNGQPENNYKTTPPVLDSDGSFFLYSKLTVDKSRWQQGNVFSCSVMHEALHNHYTQKSLSLSPGK

molecular target: T1, human mpl receptor; experiment: cell-based or functional assay

| Binder | EC50 on 32Dcl23/Mpl [nM] |
| --- | --- |
| B1 | 0.015 |
| B2 | 0.01 |
| B3 | 0.012 |
| B4 | 0.013 |
| B5 | 0.006 |
